Reference: patent US9206246B2, “Heparin/heparan sulfate-dependent inhibitors of activated protein C and uses thereof in treating hemophilic disorders” (Academia Sinica, priority 2012, dated 2015)
Where “and” joins values, the source holds several entries; their conditions need not be identical. Equal entries are not always repeated.

What was measured:
Format in all cases: biochemical
FXIa = target: T1, FXIa (Homo sapiens, UniProt P03951); experiment: Selectivity profile and Ki, amidolytic activity of FXIa
T1 construct: factor XIa (FXIa); purchased Haematologic Technologies
Protocol: In each of these experiments, the molar ratio of protease active site to inhibitor was 1:1. The final concentrations of these proteases and their respective substrates were as follows: FXIIa (20 nM)/S-2302 (0.2 mM), FXIa (2.5 nM)/S-2366 (0.2 mM), FXa (10 nM)/S-2222 (1.3 mM), FIXa (200 nM)/Spectrozyme FIXa (1.3 mM), FVIIa (100 nM)/S-2288 (1.3 mM), thrombin (5 nM)/T-1637 (0.2 mM), kallikrein (5 nM)/S-2302 (0.2 mM), plasmin (20 nM)/S-2251 (0.2 mM), tPA (80 nM)/Spectrozyme tPA (0.2 mM), uPA (100 nM)/S-2288 (1.3 mM), APC (10 nM)/Spectrozyme PCa (0.2 mM) and trypsin (5 nM)/S-2222 (0.2 mM). Results shown are means±SD of at least three experiments.
DrKIn-I, with or without heparin, was screened for its inhibitory activity against trypsin and also against serine proteases in the coagulation cascade (FXIIa, FXIa, FXa, FIXa, FVIIa, thrombin and kallikrein) and in the fibrinolytic system (plasmin, tPA and uPA). The amidolytic activities of these proteases were determined in the presence or absence of equimolar concentrations of DrKIn-I using their respective chromogenic substrates.

[1] = target: T2, human activated protein C (Homo sapiens, UniProt P04070); experiment: Inhibition of APC amidolytic activity (Spectrozyme PCa chromogenic substrate); details: for enhancement of APC inhibition by heparan sulfate chain: 10 μg/ml, APC and DrKIn-I 20 nM each; for Hill slope of dose-response curve / IC50: APC 10 nM
T2 construct: purchased Haematologic Technologies
Protocol: B: Dose-response curves of APC (10 nM) inhibition by DrKIn-I in the absence (◯) and presence (●) of 0.1 U/ml heparin. C: To determine the minimum concentration of heparin required for the potentiation APC inhibition, the activity of APC (20 nM) was measured after the addition of DrKIn-I (20 nM) and varying concentrations of heparin (0-1000 mU/ml). D: To assess the ability of heparan sulfate and the minimum length of heparan sulfate required to potentiate DrKIn-I-mediated APC inhibition, the amidolytic activity of APC was determined in the presence of DrKIn-I (20 nM) and different lengths of heparan sulfate chains (10 μg/ml each). E, Time course of FVa inactivation by APC (1 nM) was assessed in the absence (●) or presence (▪) of 5 nM DrKIn-I, or in the presence of 5 nM DrKIn-I supplemented with 0.1 U/ml heparin (▴), as described in “Materials and methods”. F, The effect of DrKIn-I (0-250 nM) and/or heparin (0.1 U/ml) on APC-mediated FVa inactivation was determined after 10 minutes of incubation at 37° C. with APC (5 nM). Results shown are means±SD of three experiments.
All inhibition assays were performed in 96-wells microtiter plates in 25 mM Tris-HCl (pH 7.4), 150 mM NaCl, 2.5 mM CaCl2 and 5 mg/ml BSA. For comparison between DrKIn-I and DrKIn-II, the amidolytic activity of 10 nM APC, with or without 0.1 U/ml heparin, was assayed in the presence or absence of equal molar concentrations of DrKIn-I or DrKIn-II. Immediately after the addition of APC, Spectrozyme PCa was added and the rates of p-nitroaniline release were monitored at 405 nm for 10 minutes at 37° C. For dose response curves, APC was mixed with different concentrations of DrKIn-I in the presence or absence of heparin. The final concentrations were as follows: APC (10 nM), heparin (0.1 U/ml) and DrKIn-I (0-100 nM in the presence of heparin and 0-12800 nM in the absence of heparin). Dose-response curves were fitted using GraphPad Prism (GraphPad Software). In other inhibition experiments, varying concentrations of heparin ([…]) or different lengths of heparan sulfate chains (10 μg/ml) were added to equimolar concentrations of APC and DrKIn-I (20 nM each). In all the inhibition experiments, Spectrozyme PCa was added to a final concentration of 0.2 mM. Changes in absorbance were measured using SpectraMax M2^e Microplate Reader (Molecular Devices).

APC = APC (Homo sapiens, UniProt P04070); experiment: Kinetic analysis of APC inhibition (Morrison tight binding equation); parameters: purchased Haematologic Technologies
Protocol: Initial velocities of APC (20 nM) were measured in the presence of increasing concentrations of DrKIn-I (0-80 nM) using different concentrations of Spectrozyme PCa (●, 0.4 mM; ▪, 0.2 mM; ▴, 0.1 mM; ▾, 0.05 mM; ♦, 0.025 mM) as substrate.
APC was incubated with heparin and increasing concentrations of DrKIn-I for 3 minutes. The initial reaction velocities (mOD405 nm/min) were then determined at 37° C. after the addition of varying concentrations of Spectrozyme PCa. The final concentrations were as follows: APC (20 nM), heparin (0.1 U/ml), DrKIn-I (0-80 nM) and Spectrozyme PCa (0.025-0.4 mM). Initial velocities were plotted against inhibitor concentrations for each substrate concentration tested and the plots were subjected to nonlinear least squares regression using GraphPad Prism software. The inhibition constant (Ki) of DrKIn-I was determined by global fitting to Morrison's tight binding equation as shown below, Vs=(Vo/2Et){[Ki′+It−Et)^2+4Ki′Et]^1/2−(Ki′+It−Et) (Eq. 1) where Vs is the steady state velocity in the presence of inhibitor, while Vo is the velocity in the absence of inhibitor. It is the total inhibitor concentration and Et is the total enzyme concentration. Ki′ is the apparent inhibition constant. […] (vii) Selectivity Profile of DrKIn-I

[2] = in the presence of 0.1 U/ml heparin

Chain of APC (P04070 212-450 limits assumed): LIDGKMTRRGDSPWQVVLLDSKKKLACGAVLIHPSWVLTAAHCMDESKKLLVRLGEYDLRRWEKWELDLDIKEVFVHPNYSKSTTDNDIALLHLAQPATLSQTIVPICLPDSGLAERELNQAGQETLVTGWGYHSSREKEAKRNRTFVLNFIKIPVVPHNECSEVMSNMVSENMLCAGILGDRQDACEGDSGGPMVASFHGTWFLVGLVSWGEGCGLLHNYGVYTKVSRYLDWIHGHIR
Chain of APC (P04070 43-197 limits assumed): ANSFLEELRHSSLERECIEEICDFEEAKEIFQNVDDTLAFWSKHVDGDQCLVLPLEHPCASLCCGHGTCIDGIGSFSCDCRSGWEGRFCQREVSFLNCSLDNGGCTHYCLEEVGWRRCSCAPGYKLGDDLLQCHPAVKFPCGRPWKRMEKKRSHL
T2 sequence (P04070 212-450 limits assumed): as the sequence (P04070 212-450 limits assumed) above
T2 sequence (P04070 43-197 limits assumed): as the sequence (P04070 43-197 limits assumed) above
T1 sequence (P03951 388-625 limits assumed): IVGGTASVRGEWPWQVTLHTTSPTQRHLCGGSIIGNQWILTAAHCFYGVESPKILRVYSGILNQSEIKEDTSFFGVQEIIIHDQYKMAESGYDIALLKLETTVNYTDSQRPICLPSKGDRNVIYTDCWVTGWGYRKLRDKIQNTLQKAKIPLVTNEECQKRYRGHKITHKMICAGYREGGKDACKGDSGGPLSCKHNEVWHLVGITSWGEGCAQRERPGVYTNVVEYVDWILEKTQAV
T1 sequence (P03951 19-387 limits assumed): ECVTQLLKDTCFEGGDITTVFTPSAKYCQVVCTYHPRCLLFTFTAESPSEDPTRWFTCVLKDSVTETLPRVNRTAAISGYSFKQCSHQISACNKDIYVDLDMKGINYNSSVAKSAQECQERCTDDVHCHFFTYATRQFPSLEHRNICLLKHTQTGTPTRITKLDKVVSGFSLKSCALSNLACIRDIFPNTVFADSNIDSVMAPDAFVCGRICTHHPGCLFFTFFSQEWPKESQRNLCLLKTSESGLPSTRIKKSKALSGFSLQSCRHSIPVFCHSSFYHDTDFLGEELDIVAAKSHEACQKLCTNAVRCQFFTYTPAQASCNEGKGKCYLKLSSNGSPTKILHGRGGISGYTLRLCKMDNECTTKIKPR

## DrKIn-I (CGGNDNNFETRKKCRQTCGAPRKGRPT)
FXIa; equimolar DrKIn-I and enzyme active site, FXIa 2.5 nM
  inhibition of FXIa: ~40%
FXIa; in the presence of heparin, read-out: Ki for FXIa inhibition
  Ki: 1.33 ± 0.08 nM
[1]; 10 nM inhibitor, 10 nM APC, no heparin
  inhibitory activity against APC in the absence of heparin: little inhibitory activity against APC
[1]; 0.01 U/ml heparin, APC 20 nM, DrKIn-I 20 nM
  potentiation of APC inhibition by heparin: more than 70%
[1]; 0.1 U/ml heparin, APC 20 nM, DrKIn-I 20 nM
  APC activity: no APC activity was detectable
[1]; equimolar inhibitor and APC (10 nM each), 0.1 U/ml heparin, Spectrozyme PCa 0.2 mM
  decrease of APC activity (inhibition of APC amidolytic activity): 100%
[1]; heparan sulfate of 2 disaccharide units
  enhancement of APC inhibition by heparan sulfate chain: ~25%
[1]; heparan sulfate of one disaccharide unit
  enhancement of APC inhibition by heparan sulfate chain: ~10%
[1]; in the absence of heparin
  Hill slope of dose-response curve: −0.85±0.02
  IC50: 88.9 ± 1 nM
[1]; [2]
  Hill slope of dose-response curve: −3.64±0.30
  IC50: 3.5 ± 0.2 nM
[1]; with vs without heparin
  reduction of IC50 by heparin: 25 fold
APC; 0.1 U/ml heparin, APC 20 nM, read-out: inhibition constant (Ki)
  Ki: 0.053 nM and ~0.053 nM and ~0.05 nM
APC; in the presence of heparin
  ratio of Ki for FXIa and plasmin to Ki for APC: at least 25 fold
